From publication PMC5401885, “Isoprenoid Pyrophosphate-Dependent Transcriptional Regulation of Carotenogenesis in Corynebacterium glutamicum” (Frontiers in Microbiology, 2017)
Blank lines part the entries; values can stand above or below the compound they belong to.

Key:
[1] = biological target: T1, CrtR (CrtRHis6, His-tagged CrtR) (Corynebacterium glutamicum, UniProt Q8NSP1); test: EMSA, loss of CrtR binding to crtE-crtR intergenic DNA; conditions: 30-fold molar excess CrtR over DNA; 15 min pre-incubation, room temperature; 50 mM Tris-HCl pH 7.5, 50 mM KCl, 10 mM MgCl2
T1 construct: gene Cgl0627; full length, 195 aa; N-terminal His-tag (pET16b, decahistidine) kept; expressed in E. coli BL21(DE3); Ni-NTA purified; cloning primers give N-terminus MLNMQE and C-terminus WLNTE
T1 sequence (Q8NSP1 1-195): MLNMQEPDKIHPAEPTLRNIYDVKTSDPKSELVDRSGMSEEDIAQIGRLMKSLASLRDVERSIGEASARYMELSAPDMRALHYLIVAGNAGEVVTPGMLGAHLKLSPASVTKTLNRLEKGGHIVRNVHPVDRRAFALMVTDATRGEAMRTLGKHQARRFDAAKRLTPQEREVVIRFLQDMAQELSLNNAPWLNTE

[2] = biological target: T2, CrtR (His-tagged) (Corynebacterium glutamicum ATCC 13032) (UniProt Q8NSP1); test: EMSA; conditions: 50 mM Tris-HCl pH 7.5, 10% glycerol, 50 mM KCl, 10 mM MgCl2, 0.5 mM EDTA, 20 uL, 90 ng DNA, 30 min at room temperature; 6% DNA retardation gel
T2 sequence: T1 sequence (Q8NSP1 1-195)

[3] = biological target: T1, CrtR (CrtRHis6, His-tagged CrtR); test: EMSA, loss of CrtR binding to crtE-crtR intergenic DNA; conditions: 30-fold molar excess CrtR over DNA; 15 min pre-incubation, room temperature; 50 mM Tris-HCl pH 7.5, 50 mM KCl, 10 mM MgCl2; remark: listed apart in the source

Compound: CC(C)=CCC/C(C)=C/COP(=O)(O)OP(=O)(O)O [GPP, geranyl pyrophosphate]
EMSA, loss of CrtR binding to crtE-crtR intergenic DNA [1]: FPP, GPP, IPP and DMAPP exerted similar effects on CrtR binding in vitro

Compound: ATTCAGCATAGTAATCACCTTTTTCTACAAAGTCAGATAAAGTTTATTTTTAAAAATATTAACTCATGGGATACTATAAATTTCTTGTAGGCACATTATTTTTATGGACCCAAATTCACACTTTCTGTACTTCATCAAAATAAAGCGCCATATACAACGATTGGGAATTTTTGCGAGATAACTGGCCGTGTGATACTCGA (double strand) [fragment A (full crtE-crtR intergenic region)]
binding [2]: binds

Compound: AAAAATAGGCCCTCATGGGATACTATAAATTTCTTGTAGGCACATTATTTTTATGGACCCAAATTCACACTTTCTGTACTTCATCAAAATAAAGCGCCATATACAACGATTGGGAATTTTTGCGAGATAACTGGCCGTGTGATACTCGA (double strand) [fragment I (motif 1 TTAA to GGCC)]
binding [2]: no binding

Compound: CATAAAAATAATGTGCCTACAAGAAATTTATAGTATCCCATGAGTTAATATTTTTAAAAATAAACTTTATCTGACTTTGTAGAAAAAGGTGATTACTATGCTGAATATGCAGGAACCAGATAAAATCCATCCGGCAGAACCTACACTTCGTAATATTTATGACGTTAAAACTAGTGATCCCAAAAGTGAATTAGTTGATCGTTCTGGCATGTCGGAAGAAGACATTGCGCAAATTGGGCGGCTAATGAAATCGTTGGCCAGTCTTCGCGATGTGGAACGTAGTATTGGTG (double strand) [fragment D]
binding [2]: binds

Compound: TCGAGTATCACACGGCCAGTTATCTCGCAAAAATTCCCAATCGTTGTATATGGCGCTTTATTTTGATGAAGTACAGAAAGTGTGAATTTGGGTCCATAAAAATAATGTGCCTACAAGCCCGGGATAGTATCCCATGAGGGCCTATTTTT (double strand)
binding [2]: no binding

Compound: CC(C)=CCC/C(C)=C/CC/C(C)=C/COP(=O)(O)OP(=O)(O)O [FPP, farnesyl pyrophosphate]
EMSA, loss of CrtR binding to crtE-crtR intergenic DNA [1]: farnesyl pyrophosphate (FPP) and GGPP perturbed binding of His-tagged CrtR to the intergenic region

Compound: CACCAATACTACGTTCCACATCGCGAAGACTGGCCAACGATTTCATTAGCCGCCCAATTTGCGCAATGTCTTCTTCCGACATGCCAGAACGATCAACTAATTCACTTTTGGGATCACTAGTTTTAACGTCATAAATATTACGAAGTGTAGGTTCTGCCGGATGGATTTTATCTGGTTCCTGCATATTCAGCATAGTAATCACCTTTTTCTACAAAGTCAGATAAAGTTTATTTTTAAAAATATTAACTCATGGG (double strand) [fragment F]
binding [2]: binds

Compound: GTTCGCTACGTCCGAGTGATCACCTACAAGGACGTCAACATCGAAGAATTAGATAAGCCTGACATCATCATGCCTGAG (double strand) [cg2228 upstream fragment]
binding [2]: no binding

Compound: CC(C)=CCOP(=O)(O)OP(=O)(O)O [DMAPP, dimethylallyl pyrophosphate]
EMSA, loss of CrtR binding to crtE-crtR intergenic DNA [1]: FPP, GPP, IPP and DMAPP exerted similar effects on CrtR binding in vitro

Compound: CACCAATACTACGTTCCACATCGCGAAGACTGGCCAACGATTTCATTAGCCGCCCAATTTGCGCAATGTCTTCTTCCGACATGCCAGAACGATCAACTAATTCACTTTTGGGATCACTAGTTTTAACGTCATAAATATTACGAAGTGTAGGTTCTGCCGGATGGATTTTATCTGGTTCCTGCATATTCAGCATAGTAATCACCTTTTTCTACAAAGTCAGATAAAGTTTATTTTTAAAAATATTAACTCATGGGATACTATAAATTTCTTGTAGGC (double strand) [fragment E]
binding [2]: binds

Compound: AAAAATATTAACTCATGGGATACTATCCCGGGCTTGTAGGCACATTATTTTTATGGACCCAAATTCACACTTTCTGTACTTCATCAAAATAAAGCGCCATATACAACGATTGGGAATTTTTGCGAGATAACTGGCCGTGTGATACTCGA (double strand) [fragment H (motif 2 AAATTT to CCCGGG)]
binding [2]: binds

Compound: AACTCATGGGATACTATAAATTTCTTGTAGGCACATTATTTTTATGGACCCAAATTCACACTTTCTGTACTTCATCAAAATAAAGCGCCATATACAACGATTGGGAATTTTTGCGAGATAACTGGCCGTGTGATACTCGA (double strand) [fragment B]
binding [2]: no binding

Compound: C=C(C)CCOP(=O)(O)OP(=O)(O)O [IPP, isopentenyl pyrophosphate]
EMSA, loss of CrtR binding to crtE-crtR intergenic DNA [1]: FPP, GPP, IPP and DMAPP exerted similar effects on CrtR binding in vitro

lowest effective concentration [3]: 50 µM
Compound: CC(C)=CCC/C(C)=C/CC/C(C)=C/CC/C(C)=C/COP(=O)(O)OP(=O)(O)O [GGPP]

Compound: AAAAATATTAACTCATGGGATACTATAAATTTCTTGTAGGCACATTATTTTTATGGACCCAAATTCACACTTTCTGTACTTCATCAAAATAAAGCGCCATATACAACGATTGGGAATTTTTGCGAGATAACTGGCCGTGTGATACTCGA (double strand) [fragment C]
binding [2]: binds

Compound: CACCAATACTACGTTCCACATCGCGAAGACTGGCCAACGATTTCATTAGCCGCCCAATTTGCGCAATGTCTTCTTCCGACATGCCAGAACGATCAACTAATTCACTTTTGGGATCACTAGTTTTAACGTCATAAATATTACGAAGTGTAGGTTCTGCCGGATGGATTTTATCTGGTTCCTGCATATTCAGCATAGTAATCACCTTTTTCTACAAAGTCAGATAAAGTTTATTTTT (double strand) [fragment G]
binding [2]: no binding
